Data published in patent US20030175904A1.

Tests used:
Experiment in all cases: cell-based or functional assay
[1] = target: baboon PERV-A receptor PBaR-A1 (baboon) (UniProt Q863Y8)
[2] = target: human PERV-A receptor PHuR-A2 (human) (UniProt Q9NWF4)
[3] = target: human PERV-A receptor PHuR-A1 (human) (UniProt Q9HAB3)
Sequence of UniProt Q9HAB3 (Q9HAB3 whole entry G341S): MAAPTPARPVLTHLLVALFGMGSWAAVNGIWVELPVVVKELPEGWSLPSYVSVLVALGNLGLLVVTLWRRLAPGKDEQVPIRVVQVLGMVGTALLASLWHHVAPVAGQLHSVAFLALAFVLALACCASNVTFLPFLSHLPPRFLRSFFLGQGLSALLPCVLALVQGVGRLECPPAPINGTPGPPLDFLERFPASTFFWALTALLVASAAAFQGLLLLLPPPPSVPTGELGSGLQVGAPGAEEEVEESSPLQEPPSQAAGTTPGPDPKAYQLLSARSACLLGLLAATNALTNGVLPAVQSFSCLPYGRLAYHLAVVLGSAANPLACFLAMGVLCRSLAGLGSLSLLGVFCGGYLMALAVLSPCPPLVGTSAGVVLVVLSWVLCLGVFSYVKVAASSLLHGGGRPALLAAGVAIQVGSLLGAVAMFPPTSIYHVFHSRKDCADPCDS

Sequence of UniProt Q9NWF4 (Q9NWF4 whole entry Q70R/V296M): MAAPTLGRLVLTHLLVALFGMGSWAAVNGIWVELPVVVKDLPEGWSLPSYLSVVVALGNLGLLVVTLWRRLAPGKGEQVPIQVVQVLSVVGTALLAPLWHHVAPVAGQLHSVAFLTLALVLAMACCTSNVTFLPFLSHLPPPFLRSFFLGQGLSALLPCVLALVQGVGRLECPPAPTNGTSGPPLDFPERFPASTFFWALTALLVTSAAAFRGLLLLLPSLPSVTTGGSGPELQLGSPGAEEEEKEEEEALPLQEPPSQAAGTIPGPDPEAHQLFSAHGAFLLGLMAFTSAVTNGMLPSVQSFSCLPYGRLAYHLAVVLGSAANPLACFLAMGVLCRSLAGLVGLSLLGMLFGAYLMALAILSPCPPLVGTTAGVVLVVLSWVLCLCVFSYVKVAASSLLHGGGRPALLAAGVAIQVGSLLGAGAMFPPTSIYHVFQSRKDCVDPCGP
Sequence of UniProt Q863Y8 (Q863Y8 whole entry): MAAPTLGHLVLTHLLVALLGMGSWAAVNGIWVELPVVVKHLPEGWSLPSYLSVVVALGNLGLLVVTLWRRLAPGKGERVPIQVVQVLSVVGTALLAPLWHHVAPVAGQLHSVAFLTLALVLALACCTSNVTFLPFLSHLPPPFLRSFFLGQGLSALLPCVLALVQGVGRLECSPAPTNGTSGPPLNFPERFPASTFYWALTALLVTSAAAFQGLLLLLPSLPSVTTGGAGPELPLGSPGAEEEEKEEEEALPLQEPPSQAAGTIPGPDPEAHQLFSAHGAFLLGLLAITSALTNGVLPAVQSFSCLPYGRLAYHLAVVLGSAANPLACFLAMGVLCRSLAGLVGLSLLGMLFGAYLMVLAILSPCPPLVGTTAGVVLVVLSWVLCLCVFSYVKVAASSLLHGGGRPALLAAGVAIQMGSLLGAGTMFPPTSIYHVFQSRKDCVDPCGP

Substance | Approximate LacZ pseudotype titer IU/ml [1] | Approximate LacZ pseudotype titer IU/ml [2] | Approximate LacZ pseudotype titer IU/ml [3]
PERV-A 14/220 envelope (ENV) protein, carried on replication competent recombinant PERV-A/PERV-C virus particles | 6000 IU/ml | 20000 IU/ml | 4000 IU/ml
TelCeB PERV-A18 LacZ pseudotype (PERV-A envelope) |  | 1000 IU/ml | 6 IU/ml
